Measurements reported in patent publication JP2019041668A.
Substitutions are numbered along the chain they refer to.

Legend:
[1] = target: グリセルアルデヒド由来AGEs含有マウス血清アルブミン (Glycer-AGEs-MSA) (mouse) (UniProt P07724); test: SPR, Biacore T200; Glycer-AGEs-MSA amine-coupled on CM5 chip, antibody 0.001-100 nM as analyte
[2] = target: グリセルアルデヒド由来AGEs含有マウス血清アルブミン (Glycer-AGEs-MSA) (mouse) (UniProt P07724); test: SPR, Biacore T200; Glycer-AGEs-MSA amine-coupled on CM5 chip, antibody 0.8-800 nM as analyte

UniProt P07724, sequence (P07724 25-608, form in doubt): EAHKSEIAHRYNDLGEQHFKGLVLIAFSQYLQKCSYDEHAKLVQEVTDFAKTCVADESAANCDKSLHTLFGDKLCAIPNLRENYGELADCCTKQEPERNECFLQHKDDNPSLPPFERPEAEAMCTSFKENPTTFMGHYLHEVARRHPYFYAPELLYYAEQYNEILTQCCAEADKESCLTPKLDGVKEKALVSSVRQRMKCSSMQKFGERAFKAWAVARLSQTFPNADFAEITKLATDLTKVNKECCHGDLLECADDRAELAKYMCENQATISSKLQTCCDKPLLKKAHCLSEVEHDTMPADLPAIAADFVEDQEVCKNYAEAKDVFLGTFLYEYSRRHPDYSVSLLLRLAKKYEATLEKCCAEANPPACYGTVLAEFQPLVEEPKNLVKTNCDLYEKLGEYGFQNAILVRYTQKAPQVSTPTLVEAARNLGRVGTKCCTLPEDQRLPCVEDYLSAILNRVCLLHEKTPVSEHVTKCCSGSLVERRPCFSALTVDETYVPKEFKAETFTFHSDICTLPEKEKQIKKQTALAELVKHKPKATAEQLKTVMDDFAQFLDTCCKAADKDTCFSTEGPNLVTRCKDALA

B1: モノクローナル抗体 6B3 (antibody, V domains shown)
VH: VKLQQSGAELVKPGASVKLSCKASGYTFTSYWMHWVKQRPGQGLEWIGEINPSNGRSNYKEKFKFKATLTVDKSSRTAYMQLSSLTSEDSAVYYCARGASWFAYWGQGTTVTVSS
VL: QIVLTQSPAIMSASPGEKVTISCSASSSVSYMYWYQQKPGSSPKPWIYRTSNLASGVPARFSGSGSGTSYSLTISSMEAEDAATYYCQQYHSYPRTFGGGTKLEIKR
**Q.** Which Kd [1] does the source give for B1 here?
**A.** The Kd was 47.6 nM.

B2: モノクローナル抗体 11G4 (antibody, V domains shown)
VH: B1 VH with Q5E, A15T, S84R
VL: ENVLTQSPTIMAASLGQKVTMTCSATSNVSSSYLHWYQQKSGASPKPLIHRTSDLASGVPTRFSGSGSGTSYSLTITSVEAEDDATYYCQQWSGYPFTFGAGTKLELKR
**Q.** How did the Kd [2] turn out when B2 was run?
**A.** Its Kd is 376 nM.
